# Measured values taken from patent US20200297818A1 (ZEALAND PHARMA A S, published 2020).
# T1: human GLP-2 receptor (hGLP2-R) (human, UniProt O95838 1-553)
# T1 sequence (looked up): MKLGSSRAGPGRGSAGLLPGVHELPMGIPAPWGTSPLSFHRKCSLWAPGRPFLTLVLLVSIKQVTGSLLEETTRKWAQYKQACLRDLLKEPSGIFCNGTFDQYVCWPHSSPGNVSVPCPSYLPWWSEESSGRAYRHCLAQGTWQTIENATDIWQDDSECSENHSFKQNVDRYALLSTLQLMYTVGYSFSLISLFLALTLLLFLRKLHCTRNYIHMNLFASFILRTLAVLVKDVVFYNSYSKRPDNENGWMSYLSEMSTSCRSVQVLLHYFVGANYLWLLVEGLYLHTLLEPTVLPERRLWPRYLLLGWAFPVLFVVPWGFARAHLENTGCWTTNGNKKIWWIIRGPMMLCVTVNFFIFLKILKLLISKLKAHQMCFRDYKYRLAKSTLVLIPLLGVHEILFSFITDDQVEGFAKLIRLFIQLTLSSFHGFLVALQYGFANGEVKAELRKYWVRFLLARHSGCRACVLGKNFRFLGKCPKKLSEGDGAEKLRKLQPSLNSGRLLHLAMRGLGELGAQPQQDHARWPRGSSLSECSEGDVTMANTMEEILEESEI
# Tests used:
# [1] = molecular target: T1, human GLP-2 receptor (hGLP2-R); assay: cell-based or functional assay
# [2] = molecular target: human glucagon-like peptide 1 receptor (GLP-1 R) (human, UniProt P43220 24-463); assay: cell-based or functional assay
Binder,EC50 GLP-2 (nM); cAMP response [1] [nM],EC50 GLP-1 (nM); cAMP response [2] [nM]
"HXEGTFTSELATILDXQAARDFIAWLIEHKITD (HELM PEPTIDE1{H.[Aib].E.G.T.F.T.S.E.L.A.T.I.L.D.K.Q.A.A.R.D.F.I.A.W.L.I.E.H.K.I.T.D}|PEPTIDE2{[O=C(O)CCCCCCCCCCCCCCCCC(=O)[*:2]].[gGlu]}$PEPTIDE1,PEPTIDE2,16:R3-2:R2$$$V2.0; SMILES CC[C@H](C)[C@H](NC(=O)[C@H](Cc1ccccc1)NC(=O)[C@H](CC(=O)O)NC(=O)[C@H](CCCNC(=N)N)NC(=O)[C@H](C)NC(=O)[C@H](C)NC(=O)[C@H](CCC(N)=O)NC(=O)[C@H](CCCCNC(=O)CC[C@H](NC(=O)CCCCCCCCCCCCCCCCC(=O)O)C(=O)O)NC(=O)[C@H](CC(=O)O)NC(=O)[C@H](CC(C)C)NC(=O)[C@@H](NC(=O)[C@@H](NC(=O)[C@H](C)NC(=O)[C@H](CC(C)C)NC(=O)[C@H](CCC(=O)O)NC(=O)[C@H](CO)NC(=O)[C@@H](NC(=O)[C@H](Cc1ccccc1)NC(=O)[C@@H](NC(=O)CNC(=O)[C@H](CCC(=O)O)NC(=O)C(C)(C)NC(=O)[C@@H](N)Cc1c[nH]cn1)[C@@H](C)O)[C@@H](C)O)[C@@H](C)O)[C@@H](C)CC)C(=O)N[C@@H](C)C(=O)N[C@@H](Cc1c[nH]c2ccccc12)C(=O)N[C@@H](CC(C)C)C(=O)N[C@H](C(=O)N[C@@H](CCC(=O)O)C(=O)N[C@@H](Cc1c[nH]cn1)C(=O)N[C@@H](CCCCN)C(=O)N[C@H](C(=O)N[C@H](C(=O)N[C@@H](CC(=O)O)C(=O)O)[C@@H](C)O)[C@@H](C)CC)[C@@H](C)CC) [Compound 25]",0.33,0.094
"HXEGSFTSELATILDXQAARDFIAWLIYHKITD (HELM PEPTIDE1{H.[Aib].E.G.S.F.T.S.E.L.A.T.I.L.D.K.Q.A.A.R.D.F.I.A.W.L.I.Y.H.K.I.T.D}|PEPTIDE2{[O=C(O)CCCCCCCCCCCCCCCCC(=O)[*:2]].[gGlu]}$PEPTIDE1,PEPTIDE2,16:R3-2:R2$$$V2.0; SMILES CC[C@H](C)[C@H](NC(=O)[C@H](Cc1ccccc1)NC(=O)[C@H](CC(=O)O)NC(=O)[C@H](CCCNC(=N)N)NC(=O)[C@H](C)NC(=O)[C@H](C)NC(=O)[C@H](CCC(N)=O)NC(=O)[C@H](CCCCNC(=O)CC[C@H](NC(=O)CCCCCCCCCCCCCCCCC(=O)O)C(=O)O)NC(=O)[C@H](CC(=O)O)NC(=O)[C@H](CC(C)C)NC(=O)[C@@H](NC(=O)[C@@H](NC(=O)[C@H](C)NC(=O)[C@H](CC(C)C)NC(=O)[C@H](CCC(=O)O)NC(=O)[C@H](CO)NC(=O)[C@@H](NC(=O)[C@H](Cc1ccccc1)NC(=O)[C@H](CO)NC(=O)CNC(=O)[C@H](CCC(=O)O)NC(=O)C(C)(C)NC(=O)[C@@H](N)Cc1c[nH]cn1)[C@@H](C)O)[C@@H](C)O)[C@@H](C)CC)C(=O)N[C@@H](C)C(=O)N[C@@H](Cc1c[nH]c2ccccc12)C(=O)N[C@@H](CC(C)C)C(=O)N[C@H](C(=O)N[C@@H](Cc1ccc(O)cc1)C(=O)N[C@@H](Cc1c[nH]cn1)C(=O)N[C@@H](CCCCN)C(=O)N[C@H](C(=O)N[C@H](C(=O)N[C@@H](CC(=O)O)C(=O)O)[C@@H](C)O)[C@@H](C)CC)[C@@H](C)CC) [Compound 27]",1.1,0.45
"HXEGSFTSELATILDXQAARDFIAWLIHHKITD (HELM PEPTIDE1{H.[Aib].E.G.S.F.T.S.E.L.A.T.I.L.D.K.Q.A.A.R.D.F.I.A.W.L.I.H.H.K.I.T.D}|PEPTIDE2{[O=C(O)CCCCCCCCCCCCCCCCC(=O)[*:2]].[gGlu]}$PEPTIDE1,PEPTIDE2,16:R3-2:R2$$$V2.0; SMILES CC[C@H](C)[C@H](NC(=O)[C@H](Cc1ccccc1)NC(=O)[C@H](CC(=O)O)NC(=O)[C@H](CCCNC(=N)N)NC(=O)[C@H](C)NC(=O)[C@H](C)NC(=O)[C@H](CCC(N)=O)NC(=O)[C@H](CCCCNC(=O)CC[C@H](NC(=O)CCCCCCCCCCCCCCCCC(=O)O)C(=O)O)NC(=O)[C@H](CC(=O)O)NC(=O)[C@H](CC(C)C)NC(=O)[C@@H](NC(=O)[C@@H](NC(=O)[C@H](C)NC(=O)[C@H](CC(C)C)NC(=O)[C@H](CCC(=O)O)NC(=O)[C@H](CO)NC(=O)[C@@H](NC(=O)[C@H](Cc1ccccc1)NC(=O)[C@H](CO)NC(=O)CNC(=O)[C@H](CCC(=O)O)NC(=O)C(C)(C)NC(=O)[C@@H](N)Cc1c[nH]cn1)[C@@H](C)O)[C@@H](C)O)[C@@H](C)CC)C(=O)N[C@@H](C)C(=O)N[C@@H](Cc1c[nH]c2ccccc12)C(=O)N[C@@H](CC(C)C)C(=O)N[C@H](C(=O)N[C@@H](Cc1c[nH]cn1)C(=O)N[C@@H](Cc1c[nH]cn1)C(=O)N[C@@H](CCCCN)C(=O)N[C@H](C(=O)N[C@H](C(=O)N[C@@H](CC(=O)O)C(=O)O)[C@@H](C)O)[C@@H](C)CC)[C@@H](C)CC) [Compound 26]",0.59,0.29

# Second part, the binder after the results:
EC50 GLP-2 (nM); cAMP response [1] [nM],EC50 GLP-1 (nM); cAMP response [2] [nM],Binder
0.38,0.31,"HXEGSFTSELATILDXQAARDFIAWLIRHKITD (HELM PEPTIDE1{H.[Aib].E.G.S.F.T.S.E.L.A.T.I.L.D.K.Q.A.A.R.D.F.I.A.W.L.I.R.H.K.I.T.D}|PEPTIDE2{[O=C(O)CCCCCCCCCCCCCCCCC(=O)[*:2]].[gGlu]}$PEPTIDE1,PEPTIDE2,16:R3-2:R2$$$V2.0; SMILES CC[C@H](C)[C@H](NC(=O)[C@H](Cc1ccccc1)NC(=O)[C@H](CC(=O)O)NC(=O)[C@H](CCCNC(=N)N)NC(=O)[C@H](C)NC(=O)[C@H](C)NC(=O)[C@H](CCC(N)=O)NC(=O)[C@H](CCCCNC(=O)CC[C@H](NC(=O)CCCCCCCCCCCCCCCCC(=O)O)C(=O)O)NC(=O)[C@H](CC(=O)O)NC(=O)[C@H](CC(C)C)NC(=O)[C@@H](NC(=O)[C@@H](NC(=O)[C@H](C)NC(=O)[C@H](CC(C)C)NC(=O)[C@H](CCC(=O)O)NC(=O)[C@H](CO)NC(=O)[C@@H](NC(=O)[C@H](Cc1ccccc1)NC(=O)[C@H](CO)NC(=O)CNC(=O)[C@H](CCC(=O)O)NC(=O)C(C)(C)NC(=O)[C@@H](N)Cc1c[nH]cn1)[C@@H](C)O)[C@@H](C)O)[C@@H](C)CC)C(=O)N[C@@H](C)C(=O)N[C@@H](Cc1c[nH]c2ccccc12)C(=O)N[C@@H](CC(C)C)C(=O)N[C@H](C(=O)N[C@@H](CCCNC(=N)N)C(=O)N[C@@H](Cc1c[nH]cn1)C(=O)N[C@@H](CCCCN)C(=O)N[C@H](C(=O)N[C@H](C(=O)N[C@@H](CC(=O)O)C(=O)O)[C@@H](C)O)[C@@H](C)CC)[C@@H](C)CC) [Compound 30]"
0.29,0.31,"HXEGSFTSELATILDXQAARDFIAWLIKHKITD (HELM PEPTIDE1{H.[Aib].E.G.S.F.T.S.E.L.A.T.I.L.D.K.Q.A.A.R.D.F.I.A.W.L.I.K.H.K.I.T.D}|PEPTIDE2{[O=C(O)CCCCCCCCCCCCCCCCC(=O)[*:2]].[gGlu]}$PEPTIDE1,PEPTIDE2,16:R3-2:R2$$$V2.0; SMILES CC[C@H](C)[C@H](NC(=O)[C@H](Cc1ccccc1)NC(=O)[C@H](CC(=O)O)NC(=O)[C@H](CCCNC(=N)N)NC(=O)[C@H](C)NC(=O)[C@H](C)NC(=O)[C@H](CCC(N)=O)NC(=O)[C@H](CCCCNC(=O)CC[C@H](NC(=O)CCCCCCCCCCCCCCCCC(=O)O)C(=O)O)NC(=O)[C@H](CC(=O)O)NC(=O)[C@H](CC(C)C)NC(=O)[C@@H](NC(=O)[C@@H](NC(=O)[C@H](C)NC(=O)[C@H](CC(C)C)NC(=O)[C@H](CCC(=O)O)NC(=O)[C@H](CO)NC(=O)[C@@H](NC(=O)[C@H](Cc1ccccc1)NC(=O)[C@H](CO)NC(=O)CNC(=O)[C@H](CCC(=O)O)NC(=O)C(C)(C)NC(=O)[C@@H](N)Cc1c[nH]cn1)[C@@H](C)O)[C@@H](C)O)[C@@H](C)CC)C(=O)N[C@@H](C)C(=O)N[C@@H](Cc1c[nH]c2ccccc12)C(=O)N[C@@H](CC(C)C)C(=O)N[C@H](C(=O)N[C@@H](CCCCN)C(=O)N[C@@H](Cc1c[nH]cn1)C(=O)N[C@@H](CCCCN)C(=O)N[C@H](C(=O)N[C@H](C(=O)N[C@@H](CC(=O)O)C(=O)O)[C@@H](C)O)[C@@H](C)CC)[C@@H](C)CC) [Compound 29]"
0.51,0.36,"HXEGSFTSELATILDXQAARDFIAWLILHKITD (HELM PEPTIDE1{H.[Aib].E.G.S.F.T.S.E.L.A.T.I.L.D.K.Q.A.A.R.D.F.I.A.W.L.I.L.H.K.I.T.D}|PEPTIDE2{[O=C(O)CCCCCCCCCCCCCCCCC(=O)[*:2]].[gGlu]}$PEPTIDE1,PEPTIDE2,16:R3-2:R2$$$V2.0; SMILES CC[C@H](C)[C@H](NC(=O)[C@H](Cc1ccccc1)NC(=O)[C@H](CC(=O)O)NC(=O)[C@H](CCCNC(=N)N)NC(=O)[C@H](C)NC(=O)[C@H](C)NC(=O)[C@H](CCC(N)=O)NC(=O)[C@H](CCCCNC(=O)CC[C@H](NC(=O)CCCCCCCCCCCCCCCCC(=O)O)C(=O)O)NC(=O)[C@H](CC(=O)O)NC(=O)[C@H](CC(C)C)NC(=O)[C@@H](NC(=O)[C@@H](NC(=O)[C@H](C)NC(=O)[C@H](CC(C)C)NC(=O)[C@H](CCC(=O)O)NC(=O)[C@H](CO)NC(=O)[C@@H](NC(=O)[C@H](Cc1ccccc1)NC(=O)[C@H](CO)NC(=O)CNC(=O)[C@H](CCC(=O)O)NC(=O)C(C)(C)NC(=O)[C@@H](N)Cc1c[nH]cn1)[C@@H](C)O)[C@@H](C)O)[C@@H](C)CC)C(=O)N[C@@H](C)C(=O)N[C@@H](Cc1c[nH]c2ccccc12)C(=O)N[C@@H](CC(C)C)C(=O)N[C@H](C(=O)N[C@@H](CC(C)C)C(=O)N[C@@H](Cc1c[nH]cn1)C(=O)N[C@@H](CCCCN)C(=O)N[C@H](C(=O)N[C@H](C(=O)N[C@@H](CC(=O)O)C(=O)O)[C@@H](C)O)[C@@H](C)CC)[C@@H](C)CC) [Compound 28]"
